Consider 8 substances from the supplement of paper PMC5998384.

In data set [1] the test system is HeLa Kyoto. Nature of the data set: melting temperature (median over replicates), in situ; higher = more thermally stable.
For data set [2], the system named is HeLa Kyoto. Nature of the data set: thermal stability score vs G1/S (z-score of summed log2 fold changes over temperatures); higher = more thermally stable than in G1/S.
The subject of data set [3] is HeLa Kyoto. In words: solubility change mitosis vs G1/S (difference of NP-40 vs SDS log2 ratios) (log2 ratio difference); higher = more soluble in mitosis.
Data set [4] concerns HeLa Kyoto. In words: solubility in G1/S (NP-40 vs SDS abundance) (log2 ratio); higher = more soluble. The note with it: cell cycle stage: G1/S.
Where [5] appears, read: cell cycle stage: early G1 (4.5 h after nocodazole release).
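Wherever melting temperature (median over replicates), in situ is given: HeLa Kyoto cells synchronized by double thymidine or nocodazole block, proteins quantified by TMT10plex mass spectrometry, three independent biological replicates.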
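Wherever solubility change mitosis vs G1/S (difference of NP-40 vs SDS log2 ratios) is given: synchronized HeLa Kyoto cells (double thymidine block for G1/S, nocodazole release for mitosis), protein amounts in NP-40 versus SDS lysates quantified by mass spectrometry, three biological replicates.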
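Wherever solubility in G1/S (NP-40 vs SDS abundance) is given: HeLa Kyoto cells arrested at G1/S by double thymidine block, proteins quantified by TMT10plex mass spectrometry in mild NP-40 versus SDS extracts, three biological replicates.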
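Wherever thermal stability score vs G1/S (z-score of summed log2 fold changes over temperatures) is given: synchronized HeLa Kyoto cells, proteins quantified by TMT10plex mass spectrometry, three biological replicates, mitosis taken 0.5 h after nocodazole release, G1/S directly after double thymidine block.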

Regarding “MPQTRSQAQATISFPKRKLSRALNKAKNSSDAKLEPTNVQTVTCSPRVKALPLSPRKRLGDDNLCNTPHLPPCSPPKQGKKENGPPHSHTLKGRRLVFDNQLTIKSPSKRELAKVHQNKILSSVRKSQEITTNSEQRCPLKKESACVRLFKQEGTCYQQAKLVLNTAVPDRLPAREREMDVIRNFLREHICGKKAGSLYLSGAPGTGKTACLSRILQDLKKELKGFKTIMLNCMSLRTAQAVFPAIAQEICQEEVSRPAGKDMMRKLEKHMTAEKGPMIVLVLDEMDQLDSKGQDVLYTLFEWPWLSNSHLVLIGIANTLDLTDRILPRLQAREKCKPQLLNFPPYTRNQIVTILQDRLNQVSRDQVLDNAAVQFCARKVSAVSGDVRKALDVCRRAIEIVESDVKSQTILKPLSECKSPSEPLIPKRVGLIHISQVISEVDGNRMTLSQEGAQDSFPLQQKILVCSLMLLIRQLKIKEVTLGKLYEAYSKVCRKQQVAAVDQSECLSLSGLLEARGILGLKRNKETRLTKVFFKIEEKEIEHALKDKALIGNILATGLP [CDC6]”, the melting temperature with HeLa Kyoto [1] (cell cycle stage: G1/S) is 50.1 °C; in the data set on HeLa Kyoto [1] (cell cycle stage: mitosis), 53.2 °C. For the same substance, the thermal stability score with HeLa Kyoto [2] (setting [5]) came out at 0.564; with HeLa Kyoto [2] (cell cycle stage: mitosis), 0.496. Further, in the data set on HeLa Kyoto [3], the “solubility change mitosis (log2)” value was found to be 0.351. Moreover, the “solubility in G1/S (log2)” value in the data set on HeLa Kyoto [4] is -0.114.

Turning to “MRPFFLLCFALPGLLHAQQACSRGACYPPVGDLLVGRTRFLRASSTCGLTKPETYCTQYGEWQMKCCKCDSRQPHNYYSHRVENVASSSGPMRWWQSQNDVNPVSLQLDLDRRFQLQEVMMEFQGPMPAGMLIERSSDFGKTWRVYQYLAADCTSTFPRVRQGRPQSWQDVRCQSLPQRPNARLNGGKVQLNLMDLVSGIPATQSQKIQEVGEITNLRVNFTRLAPVPQRGYHPPSAYYAVSQLRLQGSCFCHGHADRCAPKPGASAGPSTAVQVHDVCVCQHNTAGPNCERCAPFYNNRPWRPAEGQDAHECQRCDCNGHSETCHFDPAVFAASQGAYGGVCDNCRDHTEGKNCERCQLHYFRNRRPGASIQETCISCECDPDGAVPGAPCDPVTGQCVCKEHVQGERCDLCKPGFTGLTYANPQGCHRCDCNILGSRRDMPCDEESGRCLCLPNVVGPKCDQCAPYHWKLASGQGCEPCACDPHNSLSPQCNQFTGQCPCREGFGGLMCSAAAIRQCPDRTYGDVATGCRACDCDFRGTEGPGCDKASGRCLCRPGLTGPRCDQCQRGYCNRYPVCVACHPCFQTYDADLREQALRFGRLRNATASLWSGPGLEDRGLASRILDAKSKIEQIRAVLSSPAVTEQEVAQVASAILSLRRTLQGLQLDLPLEEETLSLPRDLESLDRSFNGLLTMYQRKREQFEKISSADPSGAFRMLSTAYEQSAQAAQQVSDSSRLLDQLRDSRREAERLVRQAGGGGGTGSPKLVALRLEMSSLPDLTPTFNKLCGNSRQMACTPISCPGELCPQDNGTACGSRCRGVLPRAGGAFLMAGQVAEQLRGFNAQLQRTRQMIRAAEESASQIQSSAQRLETQVSASRSQMEEDVRRTRLLIQQVRDFLTDPDTDAATIQEVSEAVLALWLPTDSATVLQKMNEIQAIAARLPNVDLVLSQTKQDIARARRLQAEAEEARSRAHAVEGQVEDVVGNLRQGTVALQEAQDTMQGTSRSLRLIQDRVAEVQQVLRPAEKLVTSMTKQLGDFWTRMEELRHQARQQGAEAVQAQQLAEGASEQALSAQEGFERIKQKYAELKDRLGQSSMLGEQGARIQSVKTEAEELFGETMEMMDRMKDMELELLRGSQAIMLRSADLTGLEKRVEQIRDHINGRVLYYATCK [LAMB3]”, the melting temperature with HeLa Kyoto [1] (cell cycle stage: G1/S) turned out to be 53.8 °C; in the data set on HeLa Kyoto [1] (cell cycle stage: mitosis), 53.6 °C. Besides, the values for the thermal stability score in the data set on HeLa Kyoto [2] (setting [5]) and in the data set on HeLa Kyoto [2] (cell cycle stage: mitosis) were -0.552 and 1.4, respectively. The “solubility change mitosis (log2)” value in the data set on HeLa Kyoto [3] was -0.12. For the same substance, the “solubility in G1/S (log2)” value in the data set with HeLa Kyoto [4] is 0.117.

On to KIAA1429, for which the values for the melting temperature with HeLa Kyoto [1] (cell cycle stage: G1/S) and in the data set with HeLa Kyoto [1] (cell cycle stage: mitosis) were 47.9 °C and 50.4 °C, respectively. Also, the thermal stability score was 0.289 in the data set with HeLa Kyoto [2] (setting [5]) and 0.336 in the data set with HeLa Kyoto [2] (cell cycle stage: mitosis). Also, the “solubility change mitosis (log2)” value with HeLa Kyoto [3] came to 0.17. In addition, the “solubility in G1/S (log2)” value in the data set on HeLa Kyoto [4] was -0.435.

“MALKMVKGSIDRMFDKNLQDLVRGIRNHKEDEAKYISQCIDEIKQELKQDNIAVKANAVCKLTYLQMLGYDISWAAFNIIEVMSASKFTFKRIGYLAASQSFHEGTDVIMLTTNQIRKDLSSPSQYDTGVALTGLSCFVTPDLARDLANDIMTLMSHTKPYIRKKAVLIMYKVFLKYPESLRPAFPRLKEKLEDPDPGVQSAAVNVICELARRNPKNYLSLAPLFFKLMTSSTNNWVLIKIIKLFGALTPLEPRLGKKLIEPLTNLIHSTSAMSLLYECVNTVIAVLISLSSGMPNHSASIQLCVQKLRILIEDSDQNLKYLGLLAMSKILKTHPKSVQSHKDLILQCLDDKDESIRLRALDLLYGMVSKKNLMEIVKKLMTHVDKAEGTTYRDELLTKIIDICSQSNYQYITNFEWYISILVELTRLEGTRHGHLIAAQMLDVAIRVKAIRKFAVSQMSALLDSAHLLASSTQRNGICEVLYAAAWICGEFSEHLQEPHHTLEAMLRPRVTTLPGHIQAVYVQNVVKLYASILQQKEQAGEAEGAQAVTQLMVDRLPQFVQSADLEVQERASCILQLVKHIQKLQAKDVPVAEEVSALFAGELNPVAPKAQKKVPVPEGLDLDAWINEPLSDSESEDERPRAVFHEEEQRRPKHRPSEADEEELARRREARKQEQANNPFYIKSSPSPQKRYQDTPGVEHIPVVQIDLSVPLKVPGLPMSDQYVKLEEERRHRQKLEKDKRRKKRKEKEKKGKRRHSSLPTESDEDIAPAQQVDIVTEEMPENALPSDEDDKDPNDPYRALDIDLDKPLADSEKLPIQKHRNTETSKSPEKDVPMVEKKSKKPKKKEKKHKEKERDKEKKKEKEKKKSPKPKKKKHRKEKEERTKGKKKSKKQPPGSEEAAGEPVQNGAPEEEQLPPESSYSLLAENSYVKMTCDIRGSLQEDSQVTVAIVLENRSSSILKGMELSVLDSLNARMARPQGSSVHDGVPVPFQLPPGVSNEAQYVFTIQSIVMAQKLKGTLSFIAKNDEGATHEKLDFRLHFSCSSYLITTPCYSDAFAKLLESGDLSMSSIKVDGIRMSFQNLLAKICFHHHFSVVERVDSCASMYSRSIQGHHVCLLVKKGENSVSVDGKCSDSTLLSNLLEEMKATLAKC [AP3D1]”: the results for the melting temperature in the data set on HeLa Kyoto [1] (cell cycle stage: G1/S) and in the data set on HeLa Kyoto [1] (cell cycle stage: mitosis) were 50.8 °C and 50.6 °C, respectively. Also, the thermal stability score is -1.02 in the data set on HeLa Kyoto [2] (setting [5]) and -1.46 in the data set with HeLa Kyoto [2] (cell cycle stage: mitosis). In the data set with HeLa Kyoto [3], the “solubility change mitosis (log2)” value is -0.178. Also, in the data set with HeLa Kyoto [4], the “solubility in G1/S (log2)” value was -0.378.

The substance “MASVGECPAPVPVKDKKLLEVKLGELPSWILMRDFSPSGIFGAFQRGYYRYYNKYINVKKGSISGITMVLACYVLFSYSFSYKHLKHERLRKYH [ATP5J2]” showed a melting temperature in the data set on HeLa Kyoto [1] (cell cycle stage: G1/S) of 53 °C. The thermal stability score was -0.273 in the data set with HeLa Kyoto [2] (setting [5]) and 1.63 in the data set with HeLa Kyoto [2] (cell cycle stage: mitosis). Also, the “solubility change mitosis (log2)” value in the data set on HeLa Kyoto [3] was -0.104. In the data set with HeLa Kyoto [4], the “solubility in G1/S (log2)” value worked out at 0.148.

“MPTESASCSTARQTKQKRKSHSLSIRRTNSSEQERTGLPRDMLEGQDSKLPSSVRSTLLELFGQIEREFENLYIENLELRREIDTLNERLAAEGQAIDGAELSKGQLKTKASHSTSQLSQKLKTTYKASTSKIVSSFKTTTSRAACQLVKEYIGHRDGIWDVSVAKTQPVVLGTASADHTALLWSIETGKCLVKYAGHVGSVNSIKFHPSEQLALTASGDQTAHIWRYAVQLPTPQPVADTSISGEDEVECSDKDEPDLDGDVSSDCPTIRVPLTSLKSHQGVVIASDWLVGGKQAVTASWDRTANLYDVETSELVHSLTGHDQELTHCCTHPTQRLVVTSSRDTTFRLWDFRDPSIHSVNVFQGHTDTVTSAVFTVGDNVVSGSDDRTVKVWDLKNMRSPIATIRTDSAINRINVCVGQKIIALPHDNRQVRLFDMSGVRLARLPRSSRQGHRRMVCCSAWSEDHPVCNLFTCGFDRQAIGWNINIPALLQEK [WDR37]” gave a melting temperature in the data set with HeLa Kyoto [1] (cell cycle stage: G1/S) of 53.3 °C. The thermal stability score in the data set on HeLa Kyoto [2] (setting [5]) was -0.8; with HeLa Kyoto [2] (cell cycle stage: mitosis), -0.627. Besides, the “solubility change mitosis (log2)” value with HeLa Kyoto [3] was -0.117. Moreover, in the data set on HeLa Kyoto [4], the “solubility in G1/S (log2)” value is 0.0178.

Regarding “MAVEDSTLQVVVRVRPPTPRELDSQRRPVVQVVDERVLVFNPEEPDGGFPGLKWGGTHDGPKKKGKDLTFVFDRVFGEAATQQDVFQHTTHSVLDSFLQGYNCSVFAYGATGAGKTHTMLGREGDPGIMYLTTVELYRRLEARQQEKHFEVLISYQEVYNEQIHDLLEPKGPLAIREDPDKGVVVQGLSFHQPASAEQLLEILTRGNRNRTQHPTDANATSSRSHAIFQIFVKQQDRVPGLTQAVQVAKMSLIDLAGSERASSTHAKGERLREGANINRSLLALINVLNALADAKGRKTHVPYRDSKLTRLLKDSLGGNCRTVMIAAISPSSLTYEDTYNTLKYADRAKEIRLSLKSNVTSLDCHISQYATICQQLQAEVAALRKKLQVYEGGGQPPPQDLPGSPKSGPPPEHQPCTPELPAGPRALQEESLGMEAQVERAMEGNSSDQEQSPEDEDEGPAEEVPTQMPEQNPTHALPESPRLTLQPKPVVGHFSARELDGDRSKQLALKVLCVAQRQYSLLQAANLLTPDMITEFETLQQLVQEEKIEPGAEALRTSGLARGAPLAQELCSESIPVPSPLCPEPPGYTGPVTRTMARRLSGPLHTLGIPPGPNCTPAQGSRWPMEKKRRRPSALEADSPMAPKRGTKRQRQSFLPCLRRGSLPDTQPSQGPSTPKGERASSPCHSPRVCPATVIKSRVPLGPSAMQNCSTPLALPTRDLNATFDLSEEPPSKPSFHECIGWDKIPQELSRLDQPFIPRAPVPLFTMKGPKPTSSLPGTSACKKKRVASSSVSHGRSRIARLPSSTLKRPAGPLVLPELPLSPLCPSNRRNGKDLIRVGRALSAGNGVTKVS [KIF18B]”, the melting temperature with HeLa Kyoto [1] (cell cycle stage: mitosis) turned out to be 49.3 °C. The thermal stability score amounted to 1.28 in the data set with HeLa Kyoto [2] (setting [5]) and 1.04 in the data set on HeLa Kyoto [2] (cell cycle stage: mitosis). Moreover, the “solubility change mitosis (log2)” value with HeLa Kyoto [3] amounted to 0.37. Also, the “solubility in G1/S (log2)” value in the data set with HeLa Kyoto [4] was -0.336.

Regarding “MNAAASSYPMASLYVGDLHSDVTEAMLYEKFSPAGPVLSIRVCRDMITRRSLGYAYVNFQQPADAERALDTMNFDVIKGKPIRIMWSQRDPSLRKSGVGNVFIKNLDKSIDNKALYDTFSAFGNILSCKVVCDENGSKGYAFVHFETQEAADKAIEKMNGMLLNDRKVFVGRFKSRKEREAELGAKAKEFTNVYIKNFGEEVDDESLKELFSQFGKTLSVKVMRDPNGKSKGFGFVSYEKHEDANKAVEEMNGKEISGKIIFVGRAQKKVERQAELKRKFEQLKQERISRYQGVNLYIKNLDDTIDDEKLRKEFSPFGSITSAKVMLEDGRSKGFGFVCFSSPEEATKAVTEMNGRIVGSKPLYVALAQRKEERKAHLTNQYMQRVAGMRALPANAILNQFQPAAGGYFVPAVPQAQGRPPYYTPNQLAQMRPNPRWQQGGRPQGFQGMPSAIRQSGPRPTLRHLAPTGSECPDRLAMDFGGAGAAQQGLTDSCQSGGVPTAVQNLAPRAAVAAAAPRAVAPYKYASSVRSPHPAIQPLQAPQPAVHVQGQEPLTASMLAAAPPQEQKQMLGERLFPLIQTMHSNLAGKITGMLLEIDNSELLHMLESPESLRSKVDEAVAVLQAHHAKKEAAQKVGAVAAATS [PABPC4]”, the melting temperature in the data set on HeLa Kyoto [1] (cell cycle stage: G1/S) came out at 50.3 °C; in the data set with HeLa Kyoto [1] (cell cycle stage: mitosis), 49.6 °C. In addition, the thermal stability score in the data set on HeLa Kyoto [2] (setting [5]) is -1.92; in the data set on HeLa Kyoto [2] (cell cycle stage: mitosis), -1.27. Besides, in the data set on HeLa Kyoto [3], the “solubility change mitosis (log2)” value turned out to be 0.0456. Besides, the “solubility in G1/S (log2)” value with HeLa Kyoto [4] amounted to 0.0374.
